Assay results taken from doi:10.1101/2022.01.13.476208.
Each block holds one substance with its values, some of them ahead of it.

Experiments:
[1] = target: Wild-type GPIbα, residues 1-290, with Avi-tag, biotinylated; experiment: BLI
A1 short (human) = A1 short (human) (UniProt P04275); experiment: ITC

Substance: A1+N (from UniProt P04275 1238-1469) (domain or fragment)
fold lower affinity than A1 short [1]: 4.3 fold

Substance: A1+OGly+N+C (from UniProt P04275 1238-1489) (domain or fragment)
Kd [1]: 9.2 µM | fold increase in affinity in 10 mM against 150 mM NaCl [1]: 20 fold | fold increase in kon in 10 mM against 150 mM NaCl [1]: 7 fold | fold lower affinity than with the O-glycosylated N-linker alone [1]: 1.2 fold

Substance: A1+OGly+C (from UniProt P04275 1264-1489) (domain or fragment)
fold lower affinity than A1+C [1]: 2 fold | fold lower affinity than A1 without linkers [1]: 6 fold

Substance: A1+C (from UniProt P04275 1264-1486) (domain or fragment)
fold lower affinity than A1 short [1]: 2.5 fold

Continued, values first:

Kd [1]: 0.18 µM
Substance: A1 short (from UniProt P04275 1264-1469) (domain or fragment)

fold higher affinity than A1+OGly+N+C (A1 short (human)): 39 fold
Substance: Wild-type GPIbα, residues 1-290, without Avi-tag (domain or fragment)

fold lower affinity than A1 short [1]: 10 fold
Substance: A1+N+C (from UniProt P04275 1238-1486) (domain or fragment)

fold lower affinity than A1+N [1]: 10 fold | fold lower affinity than A1 without linkers [1]: 51 fold
Substance: A1+OGly+N (from UniProt P04275 1238-1469) (domain or fragment)
